Data set [1] in a line: Blood-brain barrier crossing after application to the dural surface of the auditory midbrain. The note with it: mouse, in vivo. On the procedure:
The peptide can shuttle both itself and small molecule cargo across the blood-brain barrier of the mammalian brain. […] High dose application supports these peptides' use for suppressing audiogenic seizures, while the lower dose supports these peptides' use for reducing the effects of age-related hearing loss.
When this compound was applied to the dura, fluorescence could be seen at ˜1200 microns in depth after 8 hours.

In data set [2] the target is T1, human BKα channel (ZERO isoform) (Homo sapiens, UniProt Q12791).
T1 construct: expressed in transfected cells; host or cells: HEK293
T1 sequence (Q12791 1-1178 isoform Q12791-5): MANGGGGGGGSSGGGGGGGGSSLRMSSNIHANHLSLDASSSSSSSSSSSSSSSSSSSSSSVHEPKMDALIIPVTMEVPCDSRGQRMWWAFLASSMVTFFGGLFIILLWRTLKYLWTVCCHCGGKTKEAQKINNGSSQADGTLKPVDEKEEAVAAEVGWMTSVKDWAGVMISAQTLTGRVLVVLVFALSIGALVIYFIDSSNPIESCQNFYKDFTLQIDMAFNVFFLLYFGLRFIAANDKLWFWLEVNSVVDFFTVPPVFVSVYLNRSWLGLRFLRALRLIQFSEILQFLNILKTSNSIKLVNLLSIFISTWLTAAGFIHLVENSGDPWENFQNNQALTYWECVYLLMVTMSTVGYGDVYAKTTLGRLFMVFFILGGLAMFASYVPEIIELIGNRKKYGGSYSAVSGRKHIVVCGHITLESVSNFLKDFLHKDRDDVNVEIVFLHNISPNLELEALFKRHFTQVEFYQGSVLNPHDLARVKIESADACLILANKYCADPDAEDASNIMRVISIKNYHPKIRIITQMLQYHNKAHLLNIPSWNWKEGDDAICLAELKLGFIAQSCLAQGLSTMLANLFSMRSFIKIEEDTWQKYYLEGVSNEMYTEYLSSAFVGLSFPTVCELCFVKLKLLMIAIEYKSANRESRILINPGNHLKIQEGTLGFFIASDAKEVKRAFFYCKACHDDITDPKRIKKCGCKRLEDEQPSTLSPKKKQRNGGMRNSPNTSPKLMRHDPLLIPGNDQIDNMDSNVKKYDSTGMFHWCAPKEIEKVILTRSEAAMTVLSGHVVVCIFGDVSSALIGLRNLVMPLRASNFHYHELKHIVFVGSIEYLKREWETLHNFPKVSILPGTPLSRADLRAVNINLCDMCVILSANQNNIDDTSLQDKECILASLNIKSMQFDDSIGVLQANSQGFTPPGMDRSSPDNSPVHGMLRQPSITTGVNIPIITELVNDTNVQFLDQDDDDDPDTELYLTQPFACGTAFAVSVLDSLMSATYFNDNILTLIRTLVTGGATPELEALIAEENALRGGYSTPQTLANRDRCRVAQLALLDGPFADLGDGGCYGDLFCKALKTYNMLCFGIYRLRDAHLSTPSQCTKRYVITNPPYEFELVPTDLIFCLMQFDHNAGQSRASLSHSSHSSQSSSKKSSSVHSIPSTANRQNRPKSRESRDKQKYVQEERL
As to the kind of experiment: Patch-clamp recordings of human BKα channels (ZERO isoform) expressed in HEK293 cells, inside-out patches. The format is cell-based. On the procedure: FIGS. 6A-6H. LS3 alters the gating of human BK channels. Human BKα channels (ZERO isoform) expressed in HEK293 cells were recorded in inside-out patches. Peptide was applied by diffusion to the extracellular side. Intracellular calcium held at 750 nM. […] FIGS. 6C-6E, Bar graphs displaying the post-peptide Po relative to the starting Po across LS3 concentrations. […] FIG. 6F-6H, Bar graphs displaying the post-peptide Po relative to the starting Po for either 500 nM LS3 (cyclic) or 500 nM of the reduced form of LS3 (linear).
FIGS. 7A-7C. LS3 alters open and closed dwell times of the human BK channel. Single human BKα channels (ZERO isoform) expressed in HEK293 cells were recorded in inside-out patches. Intracellular calcium held at 750 nM. FIGS. 7A-7C, Bar graphs showing one example of changes in open and closed dwell times before (red) and after (black) 500 nM LS3 (100 mV). Channel open dwell times shortened (FIG. 7A).
FIGS. 11A-11C. The 9-amino acid peptides with an N- and C-terminal disulfide bond express motifs that were highly enriched in a screen for BK channel targeted peptides (FIG. 11A). […] 60 mV shown. N=6-12. Dotted line indicates baseline (FIGS. 11B and 11C).
FIGS. 13A-1, 13A-2, 13B, 13C-1, 13C-2, 13D-1, and 13D-2. […] Single human BKα (ZERO isoform) channels expressed in HEK293 cells were recorded in inside-out patches before and after 500 nM LS10. Intracellular calcium held at 750 nM. FIGS. 13A-1 and 13A-2: open dwell times before (FIG. 13A-1) and after (FIG. 13A-2) LS10 for a representative recording at 100 mV. Single exponential fit, red line. FIG. 13B: the mean change in peak open dwell times in response to LS10. Paired Student's t-tests compared the pre- and post-peptide peak open durations, *p<0.05, N=5-6). FIGS. 13C-1 and 13C-2: closed dwell times before (FIG. 13C-1) and after (FIG. 13C-2) LS10 for a representative recording at 100 mV. […] Three component exponential fits (gray dotted-lines) and summation (red lines) also indicated. FIGS. 13D-1 and 13D-2: the mean change in peak short (FIG. 13D-1) and long (FIG. 13D-2) duration closed dwell times in response to LS10. Paired Student's t-tests compared the pre- and post-peptide peak open durations, *p<0.05, N=6.
(§1) HEK293 cells (ATCC, Manassas, Va.) were grown according to standard procedures. Cells were cultured at 37° C. in a 5% CO2 atmosphere in Dulbecco's modified Eagle's medium with 1-glutamine, sodium pyruvate and 10% fetal bovine serum (Invitrogen). Cell lines were split with trypsin/EDTA in Hanks' balanced salt solution (Invitrogen) up to 25-30 cycles. For phage display, stable lines stably expressed rSK2 or hBKα ZERO isoform. Cells were transfected (Lipofectamine 2000, Invitrogen) with hGlyRα1 and used 48 hours later. For electrophysiological recordings, cells were transfected with the hBKα ZERO or STREX isoform. Enhanced green fluorescent protein (EGFP) was cotransfected as a marker. Electrophysiological recordings were made 16-72 h after transfection. Although the profile of BK channel composition varies from tissue to tissue, the ZERO BK channel splice variant is widely expressed, particularly in the nervous system, serving as a representative form for studying the modulation of BK channel gating.
Voltage-clamp recordings were performed at room temperature (22-24° C.) using an inside-out configuration on patches pulled from HEK293 cells. The extracellular solution contained the following (in mM): 2 KCl, 136 KOH, 20 Hepes, 2 MgCl2, adjusted to pH 7.2 with MeSO3H. In order to apply peptide to the extracellular surface, patch electrodes (7-20 MΩ in resistance) were tip filled with normal extracellular solution and backfilled with extracellular solution containing LS3. Enough normal extracellular solution was included to provide at least five minutes of peptide-free recording (determined by plotting Po vs. time). The intracellular solution (in the bath) contained the following (in mM): 6 KCl, 132 KOH, 20 Hepes, adjusted to pH 7.2 with MeSO3H. […]
(The patch-clamp technique gives a direct electrical read-out from membranes.)

The test system of the next data set is smooth muscle. As to the kind of experiment: Ex vivo preparations of bladder.
The test system of data set [3] is inferior colliculus neurons. The conditions noted are these: topical 1 μL of 10 μM stock on surface of IC, 5 hours post-application, N=5 mice.
The target in data set [4] is T2, human BKα channel (STREX isoform) (Homo sapiens, UniProt Q12791).
T2 construct: expressed in transfected cells; host or cells: HEK293
T2 sequence (Q12791 whole entry, canonical isoform): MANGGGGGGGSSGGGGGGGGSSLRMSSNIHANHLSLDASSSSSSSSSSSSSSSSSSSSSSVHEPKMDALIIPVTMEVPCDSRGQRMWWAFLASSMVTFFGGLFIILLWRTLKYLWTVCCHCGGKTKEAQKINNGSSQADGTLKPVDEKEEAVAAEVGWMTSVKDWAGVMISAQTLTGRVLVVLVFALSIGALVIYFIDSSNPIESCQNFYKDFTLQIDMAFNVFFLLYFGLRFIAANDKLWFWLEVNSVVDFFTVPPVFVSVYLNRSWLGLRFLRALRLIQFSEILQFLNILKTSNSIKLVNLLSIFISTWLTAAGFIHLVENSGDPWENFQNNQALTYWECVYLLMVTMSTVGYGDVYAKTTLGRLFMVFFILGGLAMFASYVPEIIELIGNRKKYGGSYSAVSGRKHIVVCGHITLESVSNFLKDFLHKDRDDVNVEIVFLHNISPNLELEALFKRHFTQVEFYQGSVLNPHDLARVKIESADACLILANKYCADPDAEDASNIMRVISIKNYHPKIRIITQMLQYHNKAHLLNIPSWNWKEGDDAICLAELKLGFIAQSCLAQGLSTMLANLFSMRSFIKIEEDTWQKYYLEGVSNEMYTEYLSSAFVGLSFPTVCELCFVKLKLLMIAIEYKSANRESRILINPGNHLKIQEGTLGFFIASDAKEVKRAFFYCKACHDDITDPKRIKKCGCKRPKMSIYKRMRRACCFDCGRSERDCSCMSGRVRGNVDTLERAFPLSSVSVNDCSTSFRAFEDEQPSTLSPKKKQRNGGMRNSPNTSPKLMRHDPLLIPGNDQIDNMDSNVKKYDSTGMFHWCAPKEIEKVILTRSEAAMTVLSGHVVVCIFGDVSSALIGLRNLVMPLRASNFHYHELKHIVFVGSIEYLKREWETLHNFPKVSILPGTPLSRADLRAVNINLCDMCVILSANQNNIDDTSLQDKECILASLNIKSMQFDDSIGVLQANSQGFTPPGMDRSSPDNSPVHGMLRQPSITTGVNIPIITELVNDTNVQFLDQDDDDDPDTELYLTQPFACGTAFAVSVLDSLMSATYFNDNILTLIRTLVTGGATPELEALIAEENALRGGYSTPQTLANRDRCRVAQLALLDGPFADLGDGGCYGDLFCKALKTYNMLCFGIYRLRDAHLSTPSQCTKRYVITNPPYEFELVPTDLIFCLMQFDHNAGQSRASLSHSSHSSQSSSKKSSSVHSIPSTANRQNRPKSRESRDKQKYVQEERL
As to the kind of experiment: Patch-clamp recordings of human BKα channels (STREX isoform) expressed in HEK293 cells, inside-out patches. The data set is classed as cell-based. The conditions noted are these: 500 nM, 100 mV, intracellular calcium 750 nM. On the procedure: (§2) FIGS. 12A, 12B-1, 12B-2, 12C, 12D, and 12E. […] FIGS. 12B-1 and 12B-2: representative three second traces at 100 mV before and after LS10 (500 nM). […] BKα channels expressed in HEK293 cells were recorded in inside-out patches. Intracellular calcium held at 750 nM. […] SLO-1 channels expressed in oocytes cells were recorded in inside-out patches. Intracellular calcium held at 5 μM.
as §1, with “Electrophysiological recordings were made 16-72 h after transfection. Although the profile of BK channel composition varies from tissue to tissue, the ZERO BK channel splice variant is widely expressed, particularly in the nervous system, serving as a representative form for studying the modulation of BK channel gating.” left out
Voltage-clamp recordings were performed at room temperature (22-24° C.) using an inside-out configuration on patches pulled from HEK293 cells. […] Enough normal extracellular solution was included to provide at least five minutes of peptide-free recording (determined by plotting Po vs. time). […]

Another data set deals with T3, worm BK channel (SLO-1) (Caenorhabditis elegans, UniProt Q95V25).
T3 construct: expressed in transfected cells
T3 sequence (Q95V25 whole entry): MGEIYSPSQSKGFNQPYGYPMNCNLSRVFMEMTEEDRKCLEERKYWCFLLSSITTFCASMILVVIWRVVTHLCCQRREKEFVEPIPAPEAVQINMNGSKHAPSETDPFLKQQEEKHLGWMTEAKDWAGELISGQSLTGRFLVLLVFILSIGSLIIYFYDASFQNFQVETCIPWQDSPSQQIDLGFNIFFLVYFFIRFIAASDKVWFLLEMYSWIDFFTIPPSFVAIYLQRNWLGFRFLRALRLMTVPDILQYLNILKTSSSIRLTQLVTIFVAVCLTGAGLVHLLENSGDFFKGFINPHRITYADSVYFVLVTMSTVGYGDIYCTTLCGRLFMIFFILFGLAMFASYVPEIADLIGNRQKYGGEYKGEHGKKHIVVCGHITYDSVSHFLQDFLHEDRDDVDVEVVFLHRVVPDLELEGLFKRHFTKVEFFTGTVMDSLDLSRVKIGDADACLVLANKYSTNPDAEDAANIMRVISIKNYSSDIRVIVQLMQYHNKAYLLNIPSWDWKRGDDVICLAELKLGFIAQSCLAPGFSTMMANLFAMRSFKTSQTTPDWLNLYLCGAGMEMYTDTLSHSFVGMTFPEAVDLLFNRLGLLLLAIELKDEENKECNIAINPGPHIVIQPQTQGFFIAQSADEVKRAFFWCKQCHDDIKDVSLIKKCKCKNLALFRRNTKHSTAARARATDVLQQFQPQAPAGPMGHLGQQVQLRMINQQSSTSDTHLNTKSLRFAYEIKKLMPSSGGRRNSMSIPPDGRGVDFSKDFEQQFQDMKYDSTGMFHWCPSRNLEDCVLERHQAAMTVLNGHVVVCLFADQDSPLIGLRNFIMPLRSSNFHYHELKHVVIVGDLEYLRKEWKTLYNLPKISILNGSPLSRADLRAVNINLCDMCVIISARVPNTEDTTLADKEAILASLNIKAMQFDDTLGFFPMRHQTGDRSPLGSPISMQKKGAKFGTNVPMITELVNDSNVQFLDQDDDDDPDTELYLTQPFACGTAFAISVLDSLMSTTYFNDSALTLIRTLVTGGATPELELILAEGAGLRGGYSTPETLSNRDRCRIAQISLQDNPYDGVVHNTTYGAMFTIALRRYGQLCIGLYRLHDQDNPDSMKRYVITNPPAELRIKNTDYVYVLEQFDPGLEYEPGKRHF
As to the kind of experiment: Inside-out patch recordings of SLO-1 channels expressed in oocytes. The data set is classed as cell-based, C. elegans. The note with it: 100 mV, intracellular calcium 5 μM. On the procedure: as §2
FIGS. 14A-1, 14A-2, and 14B. LS10 prevents the potentiation of BK channels by acute ethanol exposure. SLO-1 channels expressed in oocytes cells were recorded in inside-out patches before. Intracellular calcium held at 5 μM. FIGS. 14A-1 and 14A-2: representative three second traces at 100 mV before (upper traces) and after (lower traces) bath application of 50 mM ethanol. […] FIG. 14B: mean Po change in response to ethanol for control recordings (open bars) and in the presence of LS10 (shaded bars). Paired Student's t-tests compared the Po before and after ethanol, *p<0.05, N=5.
Background: Calcium assays in cells follow changes in intracellular calcium, usually with a dye or a luminescent sensor.

Positions of bridges follow the written chain, without caps; N, C: chain ends. Residues, ends and D or L forms follow the SMILES beside them.

Take `CC(C)[C@@H]1NC(=O)CNC(=O)[C@H](CCCNC(=N)N)NC(=O)[C@H](C)NC(=O)[C@@H](N)CSSC[C@@H](C(=O)O)NC(=O)[C@H](C(C)C)NC(=O)[C@H](CCCNC(=N)N)NC(=O)[C@H](Cc2ccc(O)cc2)NC1=O` [LS1, CARGVYRVC] (H-CARGVYRVC-OH; disulfide 1-9; N-terminus and C-terminus assumed): the “crossing of the blood-brain barrier” value in data set [1] is reported as “able to cross the blood-brain barrier”.
In the case of `CC(C)C[C@@H]1NC(=O)CNC(=O)[C@H](CCCNC(=N)N)NC(=O)[C@H](CCCNC(=N)N)NC(=O)[C@@H](N)CSSC[C@@H](C(=O)O)NC(=O)[C@H](C(C)C)NC(=O)[C@H](CCC(N)=O)NC(=O)[C@H](C(C)C)NC1=O` [LS3, CRRGLVQVC] (H-CRRGLVQVC-OH; disulfide 1-9; N-terminus and C-terminus assumed), in data set [2] (suppression of channel openings), the IC50 entry is “low hundreds”. Moreover, the “anti-BK channel activity in smooth muscle” value in the data set with smooth muscle is on record as “does not show typical anti-BK channel activity in smooth muscle”. For the same compound, the “crossing of the blood-brain barrier” value in data set [1] was “can cross the blood-brain barrier”.
As to `CC(C)(O)[C@H]1O[C@H]2CC[C@@]3(C)[C@@](O)(CC[C@H]4Cc5c([nH]c6ccccc56)[C@@]43C)C2=CC1=O` [paxilline], the “reduction in sound driven activity” value in data set [3] worked out at 87%.
With CAVGRLAVC (pskan10/LS10 peptide), the “change in probability of opening (Po)” value in data set [4] is recorded as “little change in the probability of opening”; in data set [2] (500 nM, 100 mV, intracellular calcium 750 nM) it was “little change in the probability of opening”; with worm BK channel (SLO-1) (500 nM), “significant reduction in the probability of opening”. Further, the “open dwell times / mean open times” value in data set [2] (500 nM peptide, single channels, intracellular calcium 750 nM, each holding voltage) is given as “shortens open dwell times”. In addition, the closed dwell times entry in data set [2] (500 nM peptide, three-component exponential fits, intracellular calcium 750 nM) is on record as “Half of the recordings showed a lengthening in closed times”. For the same compound, the mean open times result in data set [2] (500 nM, 60 mV) is given as “reduce mean open times”. For the same compound, in the data set with worm BK channel (SLO-1) (50 mM ethanol, 500 nM peptide), the “potentiation of the probability of opening (Po) by ethanol” value is “blocked”.
On to “reduced form of LS3 (linear): the reduced form of LS3 (linear), without the disulfide bridge (CRRGLVQVC; cyclised or stapled)”, for which the “post-peptide Po relative to the starting Po” value in data set [2] (500 nM, linear vs cyclic form) was “did not alter Po”.
